Assay results published in article PMC8141872.

Biological target: GST-fused PINCH-1 LIM5 domain (residues 249-325) (human), P48059
Experiment: BLI; BLItz; GST-fused PINCH protein or GST (0.05 mg/ml) loaded on anti-GST biosensor, Rsu-1 WT or mutant in the mobile phase; 20 mM Tris pH 7.5, 150 mM NaCl, 1 mg/ml BSA, 0.05% Tween-20; 1:1 global fit; at least three measurements
Conditions: remark: other sources report otherwise

GST-fused PINCH-1 LIM5 domain (residues 249-325) (human), P48059, sequence (P48059 249-325): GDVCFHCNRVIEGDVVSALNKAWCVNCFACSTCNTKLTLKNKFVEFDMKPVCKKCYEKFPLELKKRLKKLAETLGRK

- Kd: 33.3 µM
B1: Rsu-1 triple mutant R2W (Phe71Arg, Arg165Trp, Asp166Arg), Q15404 1-277 (natural protein)
chain: MSKSLKKLVEESREKNQPEVDMSDRGISNMLDVNGLFTLSHITQLVLSHNKLTMVPPNIAELKNLEVLNFRNNQIEELPTQISSLQKLKHLNLGMNRLNTLPRGFGSLPALEVLDLTYNNLSENSLPGNFFYLTTLRALYLSDNDFEILPPDIGKLTKLQILSLWRNDLISLPKEIGELTQLKELHIQGNRLTVLPPELGNLDLTGQKQVFKAENNPWVTPIADQFQLGVSHVFEYIRSETYKYLYGRHMQANPEPPKKNNDKSKKISRKPLAAKNR
